{
  "source": "the DeepSol protein solubility set",
  "data": [
    {"assay": "soluble on expression in E. coli; label from the status in PepcDB or PDB records", "values": [
      {"sequence": "MAASEAAVVSSPSLKTDTSPVLETAGTVAAMAATPSARAAAAVVAAAARTGSEARVSKAALATKLLSLSGVFAVHKPKGPTSAELLNRLKEKLLAEAGMPSPEWTKRKKQTLKIGHGGTLDSAARGVLVVGIGSGTKMLTSMLSGSKRYTAIGELGKATDTLDSTGRVTEEKPYDKITQEDIEGILQKFTGNIMQVPPLYSALKKDGQRLSTLMKRGEVVEAKPARPVTVYSISLQKFQPPFFTLDVECGGGFYIRSLVSDIGKELSSCANVLELTRTKQGPFTLEEHALPEDKWTIDDIAQSLEHCSSLFPAELALKKSKPESNEQVLSCEYITLNEPKREDDVIKTC", "soluble on expression in E. coli": "soluble"},
      {"sequence": "MSLAFDTLFLNARFDGGTRHHIAVKDGRIAAITSVDQPPAGAETIDLKDALVVPGFVEGHIHLDTSFYGDAWRPHKPCADGFNVHERVAFQAQNMAEAAPMDVRARNQLDLCIGHGTTQMRSHVIVDGSVGLKSLETILRVREEYNGLIDIQLVAFPQSGILSSPGTAQLLDEAIGLGANLVGGLDPASFDRDVEKHLDVVFGVANKHGVDIDIHLHDMGTLGAFEIEQIAARTRALGMEGRVAVSHAYGLGDIPADYLKKVAEILARSGVAIMTNAPGARPFPPILALRNAGVTVFSGNDNIRDSWWPYGDGDMLRRATTLGYRSGFNIDEELRAAFDVVTASGAKALRLEGYGLRIGAKADFVALNAEHVPEAVVAVPQGRSVYKDGRLVAANGRIVGKSGEGHHHHHH", "soluble on expression in E. coli": "not soluble"},
      {"sequence": "GPLGSKNMLLEWCRAMTRNYEHVDIQNFSSSWSSGMAFCALIHKFFPEAFDYAELDPAKRRHNFTLAFSTAEKLADCAQLLEVDDMVRLAVPDSKCVYTYIQELYRSLVQKGLVKTKKK", "soluble on expression in E. coli": "soluble"},
      {"sequence": "MASKPLQFVVVERKLNVGKNAGKVMQIARPTGRHRVDFRSFCERVSKSTTFNRQEVEAVLNYATEIAKDIVSNGDIVEFGDLGTLMPSFKSKAVEQGVKFNANVHIEKPVVLFQPSKKYFTLTDVSYEQTTARPKKGTKPAPKPDTGSGGNSGEGI", "soluble on expression in E. coli": "not soluble"},
      {"sequence": "MGSDKIHHHHHHMPFAKEKGQPAIYYETIGKGTPIIFIPPPGVGHLTFRYQVPLMNQCKLITFDVRGDCQSERSTEPMTMTQLAYDVKRVLDANCVRKAIVCGYSNGAAIAQEFALTYPERTAGVILIGGYFAVKNFLLEKEYKLGIWAARNELMPLLASGLAKNHFTDKQAANELYAEIMKTDPQMLADQYTTGLHYSSEDRLHQLRVPLLLIYGANDHYLQPYQTRFRELVHDVEIVYIQGVKHQVPSKAPHECNAVLREWMRRKQFIPS", "soluble on expression in E. coli": "not soluble"},
      {"sequence": "MSLNREDRLVSAANSYLANNYECFLDDGVILTNNYSLLGTIKLGGIDFLTTSKKDLIELHASIYSVFRNFVTPEFKFYFHTVKKKIVIDETNRDYGLIFSNDFMRAYNEKQKRESFYDISFYLTIEQDLLDTLNEPVMNKKHFADNNFEEFQRIIRAKLENFKDRIELIEELLSKYHPTRLKEYTKDGIIYSKQCEFYNFLVGMNEAPFICNRKDLYLKEKMHGGVKEVYFANKHGKILNDDLSEKYFSAIEISEYAPKSQSDLFDKINALDSEFIFMHAYSPKNSQVLKDKLAFTSRRIIISGGSKEQGMTLGCLSELVGNGDITLGSYGNSLVLFADSFEKMKQSVKECVSSLNAKGFLANAATFSMENYFFAKHCSFITLPFIFDVTSNEGHHHHHH", "soluble on expression in E. coli": "soluble"},
      {"sequence": "MKHTEESLMSTTEKSRKAEEDDEKDMKKRTQFPSSSTSSDPPVGIGGSGALVVNRRRQEGNPVLKYVRNVRYEWGDIGPDFECGPTFGVVYLSFKYHKQHPEYVYTRINGNAENRYRNKVLLGYCNMEEPRHVLRELNMICFREAWTFVVVYTVEEAAEYIELFKTTQKKEITIKKKAIDDGGDSSMSDERRRNREAAIGFLTAARSITKTDADRLLFHFGTLQAISTASETSISACPGVGPIKAKNLHSFLHAIISPNEQD", "soluble on expression in E. coli": "not soluble"},
      {"sequence": "MSEPIPPFRYAPIVCSEQSTIVAEFVPEASGVREAGYQSEAELEAAFITQLQGQAYEYLSITSEAALLANLRRQLEKLNKVTLSDAEWEGFFSTCIAGAHDGIVQKTARIQEDHVQVLKRDDGTIKNMCLLDKGNIHNNILQVMNQYAVEGARGNRYDVTVLVNGLPMVHVELKRRGVDIREAFNQINRYQRDSFWAGSGLFDYVQLFVISNGTLTKYYSNTVRAGHVEEQSNKRSKSKTSNSFSFAIWWADAKNQPITELTSFTKTFFAKHSLLNVLTKYCVFNANRKLLVMRPYQIVAAERILQRIVTATHQQQLGTVAAGGYIWHTTGSGKTLTSFKVAQLACGLGVIDKVLFVVDRKDLDYQTMREYESFEKGAANSNTSTAVLQRQLEDSDVRIIITTIQKLSRFVAKHKQHPVYGAHVAVIFDECHRSQFGDMHTEITRAFQRYHLFGFTGTPIFAENAGSTQNPMRRTTQQTFGDTLHTYTIVDAINDKTVLPFRIDYINTIKSQPNINDKQVAAIDTERALLAPERIRQIVSYIREHFDQKTKRASIYRHEGQRLQGFNALLATASIDAAKRYYAELMAQQKDLPEAQRLKVGLIYSVAANEGDGDELLAEEEFETERLDQDARNFLEAAIQDYNALFGTSFDTSADKFQNYYKDVSERLKKRKLDILIVVNMFLTGFDATTLNTLWVDKRLKAHGLIQAYSRTNRILNSVKSYGNIVSFRNLEQETNEALALFGNKDAKGIVLLRPYAEYYKEYEERVGELVAAFPLGKVIVGEAAQKAFITLFGSILRLKNILTAFDDFAGQEVLTEREFQDYQSLYLNLYAEFRSASAAEKESINDDVVFEIELIKQVEINVDFILLLVEQYVKKKGTGEDKDIRATIERAIHSSPSLRNKKELIEQFVDAVSMKATVDAQWQAFVAVKQSQELEGIIAEENLNAEATREFIANAFRDGSIPATGTAITKILPPVSRFSKNNGHAAKKQTVLDKLATFFERYFGLV", "soluble on expression in E. coli": "soluble"},
      {"sequence": "MLEAPLLSICIPAYNRPNWLQRGLESIAVGEGSDIEIVITDDSDTDQGQAIASEVLKNWSGSWCYEHHQQPLGMAQNWNRAIQWATGQYVMVLHDDDFFLPQGLGLLVNKLRQLGSSSPVLLFGVRVVDAQERVVKRQGFRQDKLLPPHDALIRLFSDSSFVRFPAMVIRRDLFTEVGYFNPDWREPCDLEMWMRLFARYGVYCCREATVAYRVHGQALTMGSFHGETVNILLRLFGELEKLNILTTRDIEFCKGLFFHQYILAGAWRQLRRRRWREFKQVMGLFDLPELKSLSCPVKWRFLRGLFSLTLEHHHHHH", "soluble on expression in E. coli": "not soluble"},
      {"sequence": "MSLKNREWYKDAVFYEVLVRAFYDPEGNGVGSLKGLTEKLDYIQWLGVDCIWIPPFYDSPLRDGGYDIRNFREILPEFGTVDDFVELIDHAHRRGLRVITDLVMNHTSDQHAWFQESRRDPTGPYGDFYVWSDDPTLYNEARIIFVDTEESNWTYDPVRGQYFWHRFFSHQPDLNYDNPAVQEAMLDVLRFWLDLGLDGFRLDAVPYLFEREGTNGENLKETHDFLKLCRSVIEKEYPGRILLAEANQWPQDVVEYFGEKDKGDECHMAFHFPLMPRIFMGVRQGSRTPISEILANTPEIPKTAQWGIFLRNHDELTLEMVSDEERSYMYSQFAMEPRMRANVGIRRRLSPLLEGDRNQLELLHGLLLSLPGSPVLYYGDEIGMGDNIWLHDRDGVRTPMQWSNDRNGGFSKADPERLYLPAIQNDQYGYAQVNVESQLNRENSLLRWLRNQILIRKQYRAFGAGTYREVSSTNESVLTFLREHKGQTILCVNNMSKYPQAVSLDLREFAGHTPREMSGGQLFPTIAEREWIVTLAPHGFFWFDLTADEKDDMEEGHHHHHH", "soluble on expression in E. coli": "soluble"},
      {"sequence": "MSLTGREILEKLERREFTREVLKEALSINDRGFNEALFKLADEIRRKYVGDEVHIRAIIEFSNVCRKNCLYCGLRRDNKNLKRYRMTPEEIVERARLAVQFGAKTIVLQSGEDPYYMPDVISDIVKEIKKMGVAVTLSLGEWPREYYEKWKEAGADRYLLRHETANPVLHRKLRPDTSFENRLNCLLTLKELGYETGAGSMVGLPGQTIDDLVDDLLFLKEHDFDMVGIGPFIPHPDTPLANEKKGDFTLTLKMVALTRILLPDSNIPATTAMGTIVPGGREITLRCGANVIMPNWTPSPYRQLYQLYPGKICVFEKDTACIPCVMKMIELLGRKPGRDWGGRKRVFETVEGHHHHHH", "soluble on expression in E. coli": "soluble"},
      {"sequence": "KGKDDAGEKPDEPADPCGLALQVQAQGTLEQLEAELTGAGQGLALEARAGLLPQAPFPLRTASLKLTREDKSSLAATLDWQPQPGQPGRDRVVATFEAERLDLQRLAGEAIPPAMLSARGGLDAEVDDLSSLHRATLTLDVTKGSSWNRHPLAGKVAASVSALGDPPGAFATAAPAQPHALPGGLWVDQLDVDLQLGPNRVRAQGKLDERAGALKLDAQAPRLDAFWPGIPGAASVKAALDGALARHRGRIEAAYTPADARARVLGRARAQAQLEFSGGWGAGPAAEGAAAGWRGSVSRLTADSAGFALALERPVTLAYVPEALAPQWQWQVGATTLALTFPDKQRVALAHAASRGGAGRWETAGRADALVITAAMVRQILVALDPEAVARAERDSGSPVNAPVPAAQRRISLDASWDLKFAGALAGKVRVARRDGDLRIPGDPPIPLGLRTLVLEANATPTGGQASRLDARLDMATARMGAINGTASATLGGLALDPRQPIRVALDADVTDLAWLGLFVGDTLEVGGMLKANVRAQGSLDGKWNASGTVNGDKLRVVRIDDGVRLIDGMLRARLQDDRVILDSLRFPASLRVMPAEWRTREWVSTNPDAKGGYLEATGQWELSAARGQVRLQLHRFPALQRSDRYGMVSGVVTLDAALPRISINGDITADAGWVSLEILQGVPTLDDDVKVVRAGQKNAQGDGPPLQIDMNLKVDMGPRFYITGMGLDAGLLGSIQIRLQEGRLTGYGALRTRGGGIEAYGQKLRLRRGTLTFQGRLDNPLLDIEALRTGEQVEAGVRVAGTAQRPRIDLVSYPDVSDVEKLSWLVLGRGPDASGGDTALLLSVGTALLGGGQPFYKQFGLDDVSVRSGAIGSSGSLLPDRTVAAGVNRDSDADLATQFLVASKRFANGITLSVEQALAGSETVGRA", "soluble on expression in E. coli": "not soluble"},
      {"sequence": "MGSDKIHHHHHHMSQLLRKPERAEISKGVTLVHDVTADNASLEYVSFKALDLSQGATYSETLENKECCIVVVTGKVHVTDHEVTFENIGTRESVFEKKPTDSVYVSNNQTFSIEAVTGARVALCYAPSKNQLPTKLIKAEDNGVEHRGKGNNQRMVHNILPDSDPSANSLLVVEVFTESGNWSSYPPHKHDRDLLPEESLLEETYYHEVNPKQGFVFQRVYTDDRSLDETMTVENENMVIVPKGYHPVGVPEGYASYYLNVMAGPKRIWKFFNDPAHEWIIE", "soluble on expression in E. coli": "not soluble"},
      {"sequence": "MKDLSSIVAKFNTQGTITEIKPLGAGLINDTYKVNTQEADAPDYVLQRINHAIFQNVEMLQSNIAAVTGHIRKKLTEAGEADIDRKVLSFLATEEGKTYWFDGESYWRVMVFIPRAKTYETVNPEYSNYAGEAFGNFQAMLADIPETLGETIPDFHNMEFRLKQLRDAVAANAAGRVAEVQYYLDEIEKRADEMCKAERLFREGKLPKRVCHCDTKVNNMMFDEDGKVLCVIDLDTVMPSFIFSDYGDFLRTGANTGDEDDKDLNRVNFNMEIFKAFTKGYLKGAKSFLTPIEIENLPYAAALFPYMQCVRFLADYINGDTYYKIKYPEHNLVRTKAQFKLLQSVEEHTPEMVAFINECLVNGLEHHHHHH", "soluble on expression in E. coli": "soluble"},
      {"sequence": "AHHHHHHGSTKRVKVITDPEVIKVMLEDTRRKILQLLRNREMTISQLSEILGKMPQTIYHHIEKLKEAGLVEVKRTEMKGNLVEKYYGRTADVFYINLYMGDEELRYLARSRLKTKLDIFKKLGYKFDEEELLNVMDRILEKEHEVKVEISKEIENVEDSLKEFSNEDIIHAIEWLAMARLAQDEEYIELVKKLGQILKR", "soluble on expression in E. coli": "soluble"},
      {"sequence": "MGSDKIHHHHHHMIEELAREIVKRFPRNHKETDPFRVLISTVLSQRTRDENTEKASKKLFEVYRTPQELAKAKPEDLYDLIKESGMYRQKAERIVEISRILVEKYGGRVPDSLEELLKLPGVGRKTANIVLWVGFKKPALAVDTHVHRISNRLGWVKTRTPEETEEALKKLLPEDLWGPINGSMVEFGRRICKPQNPLCEECFLKNHCEFYRRRGKGEVRNRTER", "soluble on expression in E. coli": "not soluble"},
      {"sequence": "MLPGTFFEVLKNEGVVAIATQGEDGPHLVNTWNSYLKVLDGNRIVVPVGGMHKTEANVARDERVLMTLGSRKVAGRNGPGTGFLIRGSAAFRTDGPEFEAIARFKWARAALVITVVSAEQTK", "soluble on expression in E. coli": "soluble"}
    ]}
  ]
}
